Drawing on PMC4908180, this text covers Km for 3 substances.

Series [1] deals with Cc1cc2nc3c(=O)[nH]c(=O)nc-3n(C[C@H](O)[C@H](O)[C@H](O)COP(=O)(O)O)c2cc1C. The series is described as follows: purified protein. In kind it is biochemical, Homo sapiens. The note with it: 100 μM ATP, 5 mM MgCl2, 50 mM Tris-HCl pH 7.5, 37°C.
In series [2] the test system is Nc1ncnc2c1ncn2[C@@H]1O[C@H](COP(=O)(O)OP(=O)(O)OP(=O)(O)O)[C@@H](O)[C@H]1O. The series is described as follows: purified protein. The note with it: FMN co-substrate, MgCl2, Tris-HCl pH 7.5, 37°C.

As to “6His-tagged human FADS isoform 2 (FADS2), WT (Homo sapiens)”, the Michaelis-Menten constant (Km) – broadly, the substrate concentration at which the rate is half of its maximum – is 0.32 ± 0.10 µM in series [1] and 8.10 ± 1.37 µM in series [2].

On to “6His-tagged human FADS isoform 2 (FADS2), WT (Homo sapiens; DEL495-495)”, for which the Michaelis constant (Km) is 0.98 ± 0.23 µM in series [1] and 8.02 ± 2.23 µM in series [2].

“6His-tagged human FADS isoform 2 (FADS2), WT (Homo sapiens; R530C)”: the results for the Km in series [1] and in series [2] were 0.39 ± 0.07 µM and 4.63 ± 1.00 µM, respectively.
